{"source": "patent US11767343B2", "about": "“Peptide probe for recognition of G-quadruplex and use thereof in detection of G-quadruplex in cell” (Changzhi Medical College, priority 2020, dated 2023)", "molecules": {"B1": {"name": "G4P: Polypeptide probe: two RHAU23 G4-binding domains, linker of three GTGSGA hexapeptides, C-terminal 3xFLAG tag, N-terminal HIS tag; SEQ ID NO: 4 (protein)", "chain": "MGSSHHHHHHSSGLVPRGSHMHPGHLKGREIGMWYAKKQGQKNKGTGSGAGTGSGAGTGSGAHPGHLKGREIGMWYAKKQGQKNKGTGSGADYKDHDGDYKDHDIDYKDDDDK", "modifications": "Fully synthetic"}}, "biological_target": "TB-1", "test": "ELISA binding of G4P to immobilized biotinylated oligonucleotide", "settings": "G4, Bulge, read-out: Kd (nM) ± SD"}
{"molecule": "B1", "values": [{"measurement": "Kd", "result": "0.74 ± 0.05", "unit": "nM"}]}
